The data set can be described thus: soluble on expression in E. coli; label from the status in PepcDB or PDB records.
With “MGSDKIHHHHHHLDLSPEDYYGSGNFWTKEAQVEGYMNGLHNNLRSSYTMFYVLGEARGGTSRYGTSSLGTSMSYSDPIKNNMLTKDNTGISNWYDLYGRIMQVNHFISEVSNGCSFLSESKKGFYLGQAYGLRALYYFMLYKTYGGVPLITDVKVLEGGKISADALYTERSTPETILKFIKSDLEASELNFGNNVTIDRAMWTKYATLMLKAEVYMWSAKVTTGDHQATGNSDLAIAQTALQPLINQFSLLDNFSEVFSKKANDEIIFAIRFKDGEATNWAGPFIYYGNIFEGQRYGRDGKLMQDTLDLKGTVGQFLHEYKKALWDSYDDEDMRRDATFMDHYGSAQKEGFGIAMKKGIGSVNSNNQRIFDTDIIVYRYADVLLMMAEIENALSGKCANYVNEVRKRAYGKNWHPQFAYTDGSYADNELTILHERDKEFVWEGKRWFDVVRMHDANGKSLAFSVAANYPNNETPDERVPLIKESEAHKLLWPIDVNTLNNDPKLEQTPGYDK”, the “soluble on expression in E. coli” value is “not soluble”.

As for “MGSDKIHHHHHHMNRMNDALELVKKLRTFLPAESVLHETEDVRPYECDGLSAYRQTPMIVALPRTEDEVAGILKICDALKIPVVARGAGTGLSGGALPHPQGVLLSLAKLKNILEIDPAARTARVQPGVRNLAISEAAAPYGLYYAPDPSSQIACSIGGNVAENSGGVHCLKYGLTVHNILKLRVLTIEGELLEMGADGLDAPGYDLLALMTGSEGMLGIVTEVTVKLTPRPEKAQVVLASFDDIRDAGNAVANVIGAGIIPAGMEMMDKITTGAVEEYVHAGYNVEAAAILLCESDGAEEEVAEEIERINEIMRQSGATEVRISRDEAERARFWAGRKAAFPAAGRVSPDYYCMDGTIPRKNLASVLTGIEALSAEYGLRCMNVFHAGDGNLHPLILYDANHPGELELTEEFGAKILRMCIEAGGTITGEHGVGIEKINQMCSQFKTGELEMFHAVKAAFDPASLLNPGKAIPTLRRCAEQGAMHVHRGKEKFPELPRF”, the “soluble on expression in E. coli” value is “not soluble”. As to “MPRIAIPDDLTEILTVVEFPLPNAPEIKIEIERLLQATGNSLSGKVTDDLVRSCQGLSMERIRRVLAKAIATHGELQPEDVDLVLEEKRQTIRQTQILDFYPATEQISDIGGLDNLKDWLLRRGGSFSERARQYGLPHPRGLLLEHHHHHH”, the “soluble on expression in E. coli” value is given as “not soluble”. Then “MTNSIHEMIRASFKCEDMVKCVLGLKSLDIEAYKALLMHGPQTAEKLGEILNRERSTAYRSLQNLIACGIVYRETRSIESGGYYYEYVAIEPQEMKRMVKKNVDEWYNQMNELIEKMDDKVNALVTRLEDDEAKQK”, with “not soluble”; and “MNLNFIVPDINMTFGDMKFMGLNRERYVYDRENNKRTDVLESRIYNIASAVQGGQIEVTIPEYAGAKEIPPFADIELKNPKISAMATSQRDSTYANVMWKLEADDIVVKGGSSVKPAAATGGNEKKLEHHHHHH”, with “not soluble”. With “MPKMIMVNKKASESQVMELEKRNYNNPVVLCGFAGSTPTGVLAASYIVETLGMHQVAHLISQHIPPVAVFVGGKLRHPFRIYANNSNTVLVAMCEVPISSAHIYEISNTLMNWIDQVGASEIVIMEGSPANGIPEERPVFAVAEKPKLDKFKKAGIQPADSAIIAGMGGGILNECLVRKITGLSFITPTSVDIPDPGAVLSIIEAINKAYNLKIKTDLLEEQVKALDEQIKKIEEQYKELQEKQKEPQSMYG” the entry was “soluble”. With “NNNLTWNIYANMTWNKNKIIKLSTDEPIEYTYQIIEEGRPYRQFYMKEYAGVDRENGKPLWYLNEEGNETTSDYNAAAKRYVGDADPKVLGGFGTNLSWKGFDFNMNFTYRLGGKVFDSGASFTGFGMANRTPLKDVALNSWTEENKDAKYPQYIYGDPNKATQTSSRFLYSSNFLRISNMTLGYTVPVNLTKKIFIQKLRAYISIDNLYTFTSNDFVGYNPETYSNGVIAWQYPATRTFIGGIQLSF”, the “soluble on expression in E. coli” value was “not soluble”. With “MQFFDGYHYHGTTFEQSYRCYPASFIDKPQLESGDKIIMPPSALDRLASLHIDYPMLFELRNAGIERVTHCGVLEFIAEEGMIYMPYWMMQNLLLQEGDIVRVRNVTLPKGTYVKLQPHTTDFLDISNPKAILETALRNYSCLTSGDSIMVPYNNKKYFIDIVETKPANAISIIETDCEVDFAPPLDYKEPERPTAPSAAKGPAKAEEVVDEPEPKFNPFTGSGRRLDGRPLAYEPAPASSSKGKQPVVANGNGQSSVASSSEKATRAQGKLVFGANGNRAPKEAAPKVGAAKETKKEEQEKKDEPKFQAFSGKKYSLRG” the entry was “soluble”. With “MSQLFVRTGITFDSSQQALAHIGKEMLAKGVVHDSYPQALVEREASFPTGIALERHAVAIPHCEAVHAKSPAIYLIRPDKPVMFQQADDDEEIAVSLIIALIVENPAAQLKLLRRLFSELQNPSTLDALLSAPDAELAIRFQETILEPEQCVQV” the entry was “not soluble”; with “MSPVHWPIHPKEYKWTVKPSPGPHAIENSLPLMIIVRDILKVADNAREARKIINSGEVLVDGRPRKNYKFPVGFMDVVSIPRTGDVYRVLPDERGRLVLHPIDEENAGFKLCKIVNKTTIKGGRTQLNLHDGRNYLSDDEFRVGDVVKLSIPEQEILERIPFEKDSLGLVTGGRHTGEIGKIKKINITRSSMPNTAVIETGAGKTFLTLKDYVFVIGKDESVISLPGGKLEHHHHHH”, “not soluble”. With “MAHHHHHHMARTLLLNIQHHQPDLGLSEVDIELGMLAGLLHDVGHGPFSHLFEDVVSRRCGIEFNHEDMSEKIARRVLRDLVPQTHVDVVVGLMRGKALLGITYGEIISNKRNGIDVDRLDYFIRDSMCCFGKPTVDVRVNRLFNSARIVCEEGQWQLGFEQKLALSLREIFTLRAKLHKNVYQHQVTKAIGHMIGDVIHAAAPHFRVGGHTLVECAQDETLFLKLGDWILEAIEASEAPHLAEAHAILHRLRTRDIYRVAYSSALDITMRAPMAAVDWPAAILEHAHPSFPLNADDFIAEVVVINQGKGTEDPLESVLFFNPKKPSQPLTRLKPAEDLKHGSPLFTPLQFEERTLMVFERRPTNGAVQRACERLNADPKYAAFFTDSLPFYNTK” the entry was “soluble”; with “MLLEEVRAGDRLSGAAARGDVQEVRRLLHRELVHPDALNRFGKTALQVMMFGSTAIALELLKQGASPNVQDTSGTSPVHDAARTGFLDTLKVLVEHGADVNVPDGTGALPIHLAVQEGHTAVVSFLAAESDLHRRDARGLTPLELALQRGAQDLVDILQGHMVAPL”, “soluble”; with “MSLVRGVLKRSKFRKMIRRAKVGDAKYIYELLTEFAKRGILLPRSLNSIYENIRDFWVYEKDGKVVGCVALHVMWEDLAEIRSLAVKEEYQKEGIGRELVIRALEDAWELGIKKVFSLTYVKEFFKKLGFKEIDKSVLPHKVWGECINCVKFPNCDEEAVLVELSEEYIKKLKEGEKISSLLPEGHHHHHH”, “soluble”.

In the case of “MSFVAYEELIKEGDTAILSLGHGAMVAVRVQRGAQTQTRHGVLRHSVDLIGRPFGSKVTCGRGGWVYVLHPTPELWTLNLPHRTQILYSTDIALITMMLELRPGSVVCESGTGSGSVSHAIIRTIAPTGHLHTVEFHQQRAEKAREEFQEHRVGRWVTVRTQDVCRSGFGVSHVADAVFLDIPSPWEAVGHAWDALKVEGGRFCSFSPCIEQVQRTCQALAARGFSELSTLEVLPQVYNVRTVSLPPPDLGTGTDGPAGSDTSPFRSGTPMKEAVGHTGYLTFATKTPG”, the “soluble on expression in E. coli” value is “soluble”.

For the origin of these results see the DeepSol protein solubility set.
